Positions count from the first letter of the chain named. Names and notes keep the numbering of the source.
Tests used:
Conditions in all cases: both partners purified
[1] = molecular target: T1, biotinylated HLA-DM ectodomain (human, UniProt P28067 27-233; P28068 19-218, biotin on the C-terminal avitag (BirA); which chain carries the avitag is not stated); assay: SPR; BIAcore, 37 C, pH 4.85; biotinylated DM on a streptavidin chip, DOv injected; 80 mM citrate-phosphate, 150 mM NaCl, 0.06% BSA, 0.05% P20; apparent KD from fitted equilibrium RU
T1 construct: HLA-DM alpha chain, human, ectodomain; HLA-DM beta chain, human, ectodomain; Alpha/beta heterodimer; The supplement says only that avitag and flag-tag stand at a C-terminus; they are written on the beta chain for want of a statement; A KT3-tag at the C-terminus of recombinant DM beta is named in the western blot methods (D1:p7); also called bio-DM; sDM-Avi
T1 sequence (P28067 27-233, chain 1 of 2): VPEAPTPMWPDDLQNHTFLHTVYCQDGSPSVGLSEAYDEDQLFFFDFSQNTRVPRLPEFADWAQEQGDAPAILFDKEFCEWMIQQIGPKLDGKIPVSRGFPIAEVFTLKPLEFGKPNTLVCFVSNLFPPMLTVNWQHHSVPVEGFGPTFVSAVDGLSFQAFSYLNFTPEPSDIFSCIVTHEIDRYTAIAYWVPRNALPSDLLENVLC
T1 sequence (P28068 19-218, chain 2 of 2): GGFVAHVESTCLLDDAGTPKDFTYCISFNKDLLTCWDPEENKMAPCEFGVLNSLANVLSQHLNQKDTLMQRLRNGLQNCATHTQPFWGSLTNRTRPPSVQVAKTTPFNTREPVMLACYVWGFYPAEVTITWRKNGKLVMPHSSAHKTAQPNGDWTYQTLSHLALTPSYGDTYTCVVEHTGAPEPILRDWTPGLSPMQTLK

[2] = molecular target: T1, biotinylated HLA-DM ectodomain; assay: SPR; BIAcore, 25 C, pH 7.2 (running buffer pH 7.16); biotinylated DM (120-130 RU) on a streptavidin chip, DOv injected; 80 mM citrate-phosphate, 150 mM NaCl, 0.06% BSA, 0.05% P20; apparent KD from fitted equilibrium RU (slow dissociation model)
[3] = molecular target: T1, biotinylated HLA-DM ectodomain; assay: SPR; BIAcore, 37 C, pH 6.3; biotinylated DM on a streptavidin chip, DOv injected; 80 mM citrate-phosphate, 150 mM NaCl, 0.06% BSA, 0.05% P20; apparent KD from fitted equilibrium RU
[4] = molecular target: T1, biotinylated HLA-DM ectodomain; assay: SPR; BIAcore, 25 C, pH 4.85; biotinylated DM on a streptavidin chip, DOv injected; 80 mM citrate-phosphate, 150 mM NaCl, 0.06% BSA, 0.05% P20; apparent KD from fitted equilibrium RU
[5] = molecular target: T1, biotinylated HLA-DM ectodomain; assay: SPR; BIAcore, 25 C, pH 6.3; biotinylated DM on a streptavidin chip; analyte: intact DOv SEC-purified after a pH 4.6 pulse (37 C, 8 min); apparent KD from fitted equilibrium RU
[6] = molecular target: T1, biotinylated HLA-DM ectodomain; assay: SPR; BIAcore, 25 C, pH 5.5 (running buffer pH 5.49); biotinylated DM on a streptavidin chip, DOv injected; 80 mM citrate-phosphate, 150 mM NaCl, 0.06% BSA, 0.05% P20; apparent KD from fitted equilibrium RU
[7] = molecular target: T1, biotinylated HLA-DM ectodomain; assay: SPR; BIAcore, 25 C, pH 6.3 (running buffer pH 6.26); biotinylated DM on a streptavidin chip, untreated DOv injected; 80 mM citrate-phosphate, 150 mM NaCl, 0.06% BSA, 0.05% P20; apparent KD from fitted equilibrium RU
[8] = molecular target: T2, soluble HLA-DM ectodomain (human, UniProt P28067 27-233; P28068 19-218); assay: BLI; Octet QK, 25 C as the table's head says, pH 5.5 (50 mM citrate, 150 mM NaCl, 0.01% BSA, 0.002% Tween 20); biotinylated DOv on streptavidin biosensors, soluble DM 6.25-1600 nM; apparent KD from fitted equilibrium wavelength shifts
T2 construct: HLA-DM alpha chain, human, ectodomain; HLA-DM beta chain, human, ectodomain; The analyte of the BLI experiments, not biotinylated; also called sDM; soluble DM
T2 sequence (P28067 27-233, chain 1 of 2): as the sequence (P28067 27-233, chain 1 of 2) above
T2 sequence (P28068 19-218, chain 2 of 2): as the sequence (P28068 19-218, chain 2 of 2) above

[9] = molecular target: T2, soluble HLA-DM ectodomain; assay: BLI; Octet QK, 25 C as the table's head says, table row pH 7.2 (kinetic buffer 50 mM HEPES pH 7.4, 150 mM NaCl, 0.01% BSA, 0.002% Tween 20); biotinylated DOv on streptavidin biosensors, soluble DM 6.25-1600 nM; apparent KD from fitted equilibrium wavelength shifts
[10] = molecular target: T2, soluble HLA-DM ectodomain; assay: BLI; Octet QK, 25 C as the table's head says, table row pH 4.85 (kinetic buffer 50 mM acetate pH 4.7, 150 mM NaCl, 0.01% BSA, 0.002% Tween 20); biotinylated DOv on streptavidin biosensors, soluble DM 6.25-1600 nM; apparent KD from fitted equilibrium wavelength shifts
[11] = molecular target: T2, soluble HLA-DM ectodomain; assay: BLI; Octet QK, 25 C as the table's head says, pH 6.3 (50 mM MES, 150 mM NaCl, 0.01% BSA, 0.002% Tween 20); biotinylated DOv on streptavidin biosensors, soluble DM 6.25-1600 nM; apparent KD from fitted equilibrium wavelength shifts
[12] = molecular target: T3, HLA-DM ectodomain of the DM-DOwt complex (human, UniProt P28067 27-233; P28068 19-218); assay: SEC; DM-DOwt ectodomains incubated at pH 4.6, 5.4 or 6.3 for the indicated times (4 h, 24 h) or not treated, separated by size exclusion chromatography; fractions western blotted with DO- or DM-specific antibodies
T3 construct: HLA-DM alpha chain, ectodomain; HLA-DM beta chain, ectodomain; For BLI the DM-DOwt complex was biotinylated; also called DM (in DM-DOwt); DM-DO ectodomains; source: recombinant, purified in complex with DOwt (double SEC-purified DM-DO ectodomains)
T3 sequence (P28067 27-233, chain 1 of 2): as the sequence (P28067 27-233, chain 1 of 2) above
T3 sequence (P28068 19-218, chain 2 of 2): as the sequence (P28068 19-218, chain 2 of 2) above

[13] = molecular target: T4, biotinylated DM (soluble HLA-DM, SPR ligand) (human, UniProt P28067 27-233; P28068 19-218, biotin (chain and site not stated) | biotin (chain and site not stated)); assay: SPR; BIAcore; 120–130 RU biotinylated DM on a streptavidin chip, DOv injected (Kinject, 30 μl/min, 5 min); 80 mM citrate-phosphate, 150 mM NaCl, 0.06% BSA, 0.05% P20, pH 4.85, 5.49, 6.26, 7.16; 25 °C or 37 °C; single cycle mode at pH 4.85 with >4 h dissociation; apparent constants (slow dissociation model)
T4 construct: HLA-DM alpha chain, ectodomain; HLA-DM beta chain, ectodomain; captured on a streptavidin chip; also called immobilized DM; source: recombinant, purified
T4 sequence (P28067 27-233, chain 1 of 2): as the sequence (P28067 27-233, chain 1 of 2) above
T4 sequence (P28068 19-218, chain 2 of 2): as the sequence (P28068 19-218, chain 2 of 2) above

B1: stabilized HLA-DO variant ectodomain (alpha P11A) (domain or fragment, human)
MHC II alpha: TKADHMGSYGAAFYQSYGASGQFTHEFDEEQLFSVDLKKSEAVWRLPEFGDFARFDPQGGLAGIAAIKAHLDILVERSNRSRAINVPPRVTVLPKSRVELGQPNILICIVDNIFPPVINITWLRNGQTVTEGVAQTSFYSQPDHLFRKFHYLPFVPSAEDVYDCQVEHWGLDAPLLRHWELQVPIPPPDAME
MHC II beta: TDSPEDFVIQAKADCYFTNGTEKVQFVVRFIFNLEEYVRFDSDVGMFVALTKLGQPDAEQWNSRLDLLERSRQAVDGVCRHNYRLGAPFTVGRKVQPEVTVYPERTPLLHQHNLLHCSVTGFYPGDIKIKWFLNGQEERAGVMSTGPIRNGDWTFQTVVMLEMTPELGHVYTCLVDHSSLLSPVSVEWRAQSEYSWRK
notes: HLA-DO alpha chain, human, ectodomain; HLA-DO beta chain, human, ectodomain; Alpha/beta heterodimer, not biotinylated when used as SPR analyte; The avitag is said to stand at the C-terminus of recombinant DO beta (D1:p7); The 'sz' of the cell line's name may mean leucine zippers; In one experiment the intact fraction after a pH 4.6 pulse (37 C, 8 min, SEC 12-13 ml) was used; also called szDOv-Avi
Question: Which results are given for B1?
Answer: Kd [1]: 0.24 µM; Kd [2]: 0.0094 µM; Kd [3]: 0.0126 µM; Kd [4]: 0.148 µM; Kd [5]: 0.0275 µM; Kd [6]: 0.0219 µM; Kd [7]: 0.0141 µM

B2: biotinylated stabilized HLA-DO variant ectodomain (alpha P11A) (domain or fragment, human)
MHC II alpha: B1 MHC II alpha
MHC II beta: B1 MHC II beta
modifications: biotin on the C-terminal avitag (BirA)
notes: HLA-DO alpha chain, human, ectodomain; HLA-DO beta chain, human, ectodomain; Same construct as Dm2, biotinylated and held on streptavidin biosensors in BLI; also called bio-DOv; biotinylated DOv
Question: B2 was tested. Which Kd [8] did it give?
Answer: The Kd was 0.0269 µM.

Question: What about the Kd [9] of the same binder?
Answer: Its Kd is 0.0113 µM.

Question: What about the Kd [10] of the same binder?
Answer: Its Kd is 0.233 µM.

Question: And the Kd [11]?
Answer: The Kd was 0.017 µM.

B3: wild type HLA-DO ectodomain (DOwt) of the DM-DOwt complex (complex, human)
MHC II alpha: B1 MHC II alpha with A11P
MHC II beta: B1 MHC II beta
notes: HLA-DO alpha chain, ectodomain; HLA-DO beta chain, ectodomain; For BLI the DM-DOwt complex was biotinylated; also called wild type DO; source: recombinant, purified in complex with DM (double SEC-purified DM-DO ectodomains)
Question: Does B3 bind [12]?
Answer: Result: binds

B4: stabilized HLA-DO variant (DOv), ectodomain with αP11A (complex, human)
MHC II alpha: B1 MHC II alpha
MHC II beta: B1 MHC II beta
notes: HLA-DO alpha chain, ectodomain; HLA-DO beta chain, ectodomain; Also used after pH 4.6 pulses and SEC isolation of the intact portion (assay a3); also called soluble DOv; source: recombinant, expressed and purified alone
Question: B4 was tested. Which “fold increase of KD,app from pH 7.2 to pH 4.7” value [13] did it give?
Answer: Its value is over 10 fold.

Source: publication PMC4661524 (Scientific Reports, 2015)
